Earlier results as cited in patent publication US8901167B2, “Product and process for inhibition of biofilm development” (National Jewish Health, priority 2004, dated 2014).

Key:
[1] = system: extracellular DNA present in the CF airway; details: inhalation, CF patients; Fuchs et al. 1994
P. aeruginosa biofilm = details: literature refs 39, 43

B1: rhDNase: purified rhDNase (Pulmozyme; Genentech), digests extracellular DNA present in the CF airway (protein, UniProt P24855 23-282, looked up)
Deoxyribonuclease-1: LKIAAFNIQTFGETKMSNATLVSYIVQILSRYDIALVQEVRDSHLTAVGKLLDNLNQDAPDTYHYVVSEPLGRNSYKERYLFVYRPDQVSAVDSYYYDDGCEPCGNDTFNREPAIVRFFSRFTEVREFAIVPLHAAPGDAVAEIDALYDVYLDVQEKWGLEDVMLMGDFNAGCSYVRPSQWSSIRLWTSPTFQWLIPDSADTTATPTHCAYDRIVVAGMLLRGAVVPDSALPFNFQAAYGLSDQLAQAISDHYPVEVMLK
- Clinical effect on sputum viscosity and forced expiratory volume (FEV) [1]: clinically effective for diminishing sputum viscosity and stabilizing the forced expiratory volume

B2: lactoferrin: a major component of the secondary neutrophil granules (protein, UniProt P02788 20-710, looked up)
Lactotransferrin: GRRRSVQWCAVSQPEATKCFQWQRNMRKVRGPPVSCIKRDSPIQCIQAIAENRADAVTLDGGFIYEAGLAPYKLRPVAAEVYGTERQPRTHYYAVAVVKKGGSFQLNELQGLKSCHTGLRRTAGWNVPIGTLRPFLNWTGPPEPIEAAVARFFSASCVPGADKGQFPNLCRLCAGTGENKCAFSSQEPYFSYSGAFKCLRDGAGDVAFIRESTVFEDLSDEAERDEYELLCPDNTRKPVDKFKDCHLARVPSHAVVARSVNGKEDAIWNLLRQAQEKFGKDKSPKFQLFGSPSGQKDLLFKDSAIGFSRVPPRIDSGLYLGSGYFTAIQNLRKSEEEVAARRARVVWCAVGEQELRKCNQWSGLSEGSVTCSSASTTEDCIALVLKGEADAMSLDGGYVYTAGKCGLVPVLAENYKSQQSSDPDPNCVDRPVEGYLAVAVVRRSDTSLTWNSVKGKKSCHTAVDRTAGWNIPMGLLFNQTGSCKFDEYFSQSCAPGSDPRSNLCALCIGDEQGENKCVPNSNERYYGYTGAFRCLAENAGDVAFVKDVTVLQNTDGNNNEAWAKDLKLADFALLCLDGKRKPVTEARSCHLAMAPNHAVVSRMDKVERLKQVLLHQQAKFGRNGSDCPDKFCLFQSETKNLLFNDNTECLARLHGKTTYEKYLGPQYVAGITNLKKCSTSPLLEACEFLRK
- Effect on P. aeruginosa biofilm formation (P. aeruginosa biofilm): prevent P. aeruginosa biofilm development
